Data reported in publication doi:10.1101/2021.07.08.451670.

Target: P-GltPh (S279E/D405N) (UniProt O59010)
Experiment: cryo-EM structure

- stoichiometry N: 3
Substance: P-GltPh (S279E/D405N) (from UniProt O59010 1-417) (natural protein)
